Measurements taken from patent US5869336A, “Recombinant enzymatically active calpain expressed in a baculovirus system” (Cephalon, Inc., priority 1997, dated 1999).

T1: recombinant human calpain I (Homo sapiens, UniProt P07384)
T1 construct: the 2153 bp fragment containing the entire human 80 kDa calpain I cDNA; made in house; host or cells: Spodoptera frugiperda Sf21 cells, recombinant baculovirus (AcNPV-hCANPI-2-5, or coinfection with AcNPV-hCANP30-5 and AcNPV-hCANPI80-5)
T1 sequence (P07384 2-714): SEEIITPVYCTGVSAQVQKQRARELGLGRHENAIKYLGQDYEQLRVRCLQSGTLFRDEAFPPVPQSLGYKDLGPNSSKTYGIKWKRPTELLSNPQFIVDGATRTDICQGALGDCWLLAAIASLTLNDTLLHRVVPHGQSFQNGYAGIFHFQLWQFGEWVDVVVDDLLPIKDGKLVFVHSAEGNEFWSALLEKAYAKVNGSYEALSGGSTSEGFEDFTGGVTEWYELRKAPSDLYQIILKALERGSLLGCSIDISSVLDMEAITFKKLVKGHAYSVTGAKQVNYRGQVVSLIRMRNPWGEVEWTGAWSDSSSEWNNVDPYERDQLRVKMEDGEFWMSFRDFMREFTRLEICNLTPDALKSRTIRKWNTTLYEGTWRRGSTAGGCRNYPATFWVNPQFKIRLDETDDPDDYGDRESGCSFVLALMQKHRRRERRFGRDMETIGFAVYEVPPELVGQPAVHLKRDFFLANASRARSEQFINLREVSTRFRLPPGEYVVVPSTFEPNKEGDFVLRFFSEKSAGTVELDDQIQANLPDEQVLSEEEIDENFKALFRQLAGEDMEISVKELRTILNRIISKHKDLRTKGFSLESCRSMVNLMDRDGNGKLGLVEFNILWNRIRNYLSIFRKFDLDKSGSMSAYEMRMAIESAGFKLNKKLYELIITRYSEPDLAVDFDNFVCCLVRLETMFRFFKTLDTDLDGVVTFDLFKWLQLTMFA
T1 sequence (P04632 1-268 partner): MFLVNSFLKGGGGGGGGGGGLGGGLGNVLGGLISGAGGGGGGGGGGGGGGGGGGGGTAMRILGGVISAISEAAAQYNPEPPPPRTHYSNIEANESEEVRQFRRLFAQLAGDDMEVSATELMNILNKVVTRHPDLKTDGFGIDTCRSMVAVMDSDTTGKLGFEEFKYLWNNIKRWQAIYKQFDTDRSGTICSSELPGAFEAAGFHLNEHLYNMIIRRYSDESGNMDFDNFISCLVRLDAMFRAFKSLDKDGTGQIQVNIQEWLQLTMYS

B1: native human calpain I: partially-purified native human calpain I (protein, UniProt P07384 2-714; P04632 1-268, looked up)
Calpain-1 catalytic subunit: T1 sequence (P07384 2-714)
Calpain small subunit 1: T1 sequence (P04632 1-268 partner)
B2: recombinantly produced calpain: recombinant enzymatically active human calpain I, heterodimer of 80 kDa and 30 kDa subunits, expressed in a baculovirus-insect cell system (protein, UniProt P07384 2-714; P04632 1-268, looked up)
Calpain-1 catalytic subunit: T1 sequence (P07384 2-714)
Calpain small subunit 1: T1 sequence (P04632 1-268 partner)
B3: 80 kDa recombinant calpain I: recombinant 80 kDa subunit of human calpain I expressed in Sf21 cells infected with AcNPV-hCANPI80-5 (protein, UniProt P07384 2-714, looked up)
Calpain-1 catalytic subunit: T1 sequence (P07384 2-714)

What was measured:
native human calpain I = experiment: Calcium-dependent protease activity (Succ-Leu-Tyr-AMC), native calpain I; type: biochemical; details: 1 mM Succ-Leu-Tyr-AMC, 5 mM CaCl2; FIG. 5a
Description: (§1) Sf21 cells were again seeded in 24 well plates at 1.5×10^5 cells/cm^2 and infected with either wild-type virus, coinfected with both AcNPV-hCANP30-5 and AcNPV-hCANPI80-5 (MOI of 5 for each virus), or infected with AcNPV-hCANPI-2-5 (MOI=5.7). The intracellular proteins were harvested at 40 hours after infection with 100 μl/well of the following lysis buffer: 50 mM Tris-HCl, pH 7.5, 50 mM NaCl, 1 mM EDTA, 1 mM EGTA, 5 mM β-mercaptoethanol, 0.1% Triton-100, followed by a 10 minutes centrifugation at 14,000×g at 4° C. to pellet the nuclei and some membranes. The in vitro enzyme activity of 20 μl of each extract (12.5-20 μg of total protein) was measured using the synthetic peptide substrate succinyl-leucine-tyrosine-aminomethyl coumarin (Succ-Leu-Tyr-AMC) at a 1 mM concentration with and without the addition of 5 mM CaCl2 following the procedure of Sasaki et al., J. Biol. Chem., 259:12489-12494 (1984), incorporated herein by reference. The activity obtained was compared with the enzyme activity of 2 μg of partially-purified native human calpain I produced according to the method of Siman et al., supra.
(§2) The activity in the presence of calcium was also measured with the addition of 12.5 μM calpain inhibitor I following the procedure disclosed in Sasaki et al., supra. The results are depicted in FIGS. 5a-d. In FIGS. 5a-d, open circles represent activity without calcium present. […]

[1] = target: T1, recombinant human calpain I; experiment: Calcium-dependent protease activity (Succ-Leu-Tyr-AMC), recombinant calpain in Sf21 cell extracts; type: biochemical
Description: as §1, §2

[2] = tested on: 80 kDa subunit of recombinant calpain I; experiment: Autolytic processing of the 80 kDa subunit to the 76 kDa form (immunoblot); type: biochemical, human; details: 6.7 mM CaCl2, 5 minutes, room temperature
Description: The 76 kDa form is produced in the presence of calcium by autolytic cleavage and is indicative of active enzyme. Lysates from cells either infected with wild-type AcNPV, coinfected with both AcNPV-hCANP30-5 and AcNPV-hCANPI80-5 or infected with AcNPV-hCANPI-2-5 prepared in Example 5 were incubated with or without the addition of 6.7 mM
CaCl2 for 5 minutes at room temperature, stopping the reaction by adding 6.7 mM EDTA and boiling the samples in SDS-PAGE-gel-loading buffer prior to storage at -70° C. The results of PAGE of the preparations are depicted in FIGS. 6a and b. In FIGS. 6a and b, the presence and absence of calcium is indicated by a "+" or "-", respectively. […] A single band is detected in all the samples incubated with calcium (lanes 2,5, and 7), and it comigrates with the 76 kDa native human calpain I (lane 2) that has also been incubated with calcium.
FIG. 6b contains the results of an immunoblot analysis of the same samples as in 6a except that the AB#34 antibody used was generated against the first five amino acids at the N-terminus of the 76 kDa fragment (anti-LGRHEC); (Saido et al., J. Biochem. 111:81-96 (1992)). […] Both the small amounts of the endogenously-cleaved recombinant calpain I large subunit and the single abundant 76 kDa band after the addition of calcium are detected by this antiserum.

[3] = tested on: recombinant 80 kDa subunit of calpain I; experiment: Enzymatic activity of independently expressed 80 kDa subunit (Succ-Leu-Tyr-AMC); type: biochemical, human
Description: as §1
To determine the relative activity of the recombinantly produced 80 kDasubunit, the enzymatic activity of the subunit was examined in unfractionated extracts from Sf21 cells infected with AcNPV-hCANPI80-5. […] The same amount of enzyme activity for both the recombinant 80 kDa subunit and the recombinant calpain was then run on SDS-PAGE and the amount of each was qualitatively determined by immunoblot analysis as described in Example 4 above. As determined therefrom, approximately 4- to 5-fold more isolated 80 kDa protein is needed to give activity equivalent to that of the heterodimeric protein. Thus, the specific activity of the 80 kDa recombinant calpain I was experimentally determined to be approximately 20-25% that of the heterodimeric calpain I. This is approximately seven times greater than that of the 80 kDa subunit dissociated from native calpain I (Kikuchi et al., supra).

Row | Molecule | calcium-dependent substrate hydrolysis (native human calpain I) | calcium-dependent substrate hydrolysis ([1]; 1 mM Succ-Leu-Tyr-AMC, 5 mM CaCl2, FIGS. 5c, 5d) | specific activity compared with native calpain ([1]; data not shown) | autocatalytic activation by added calcium [2] | specific activity relative to heterodimeric calpain I ([3]; 80 kDa subunit alone vs recombinant heterodimer) | specific activity relative to 80 kDa subunit dissociated from native calpain I ([3]; comparison with Kikuchi et al.) | amount of protein needed to give activity equivalent to heterodimeric protein ([3]; isolated 80 kDa protein vs heterodimer)
1 | B1 | calcium-dependent increase in substrate hydrolysis | – | – | – | – | – | –
2 | B2 | – | calcium-dependent increase in substrate hydrolysis | similar | correctly autoprocessed the 80 kDa subunit to the "activated" 76 kDa form | – | – | –
3 | B3 | – | – | – | entire amount of the 80 kDa subunit recombinant protein is capable of being autocatalytically activated | 20-25% | approximately seven | 4- to 5 fold
